Columns and labels:
[1] = target: T1, CD47 on cells (target cells of the assays) (Homo sapiens (Human), UniProt Q08722 19-323); assay: cell-based or functional assay
[2] = target: T1, CD47 on cells (target cells of the …); assay: cell-based or functional assay; remark: listed apart in the source
[3] = target: PD-L1 on cells (target cells of the assays) (Homo sapiens (Human), UniProt Q9NZQ7 19-290); assay: cell-based or functional assay
[4] = target: T2, CD47 and PD-L1 together on the surface of the same cells (CD47 PD-L1 TCA CHO cells); PD-L1 MDA-MB-231 cells; … (Homo sapiens (Human), UniProt Q08722 19-323; Q9NZQ7 19-290); assay: flow cytometry on Jeko-PD-L1 cells (both targets on the cells); BC44 format
[5] = target: T2, CD47 and PD-L1 together on the surface …; assay: flow cytometry on PD-L1 MDA-MB-231 cells (both targets on the cells); BC44 format
[6] = target: T3, biotinylated human PD-L1 (extracellular domain, Acro Biosystems) (human, UniProt Q9NZQ7 19-238, biotinylated); assay: Octet in-tandem cross-competition, 100 nM biotinylated antigen on a streptavidin sensor
T3 construct: Bought protein; also called biotinylated antigen; biotinylated human PD-L1-His Avitag; not shown: His Avitag or His tag
T3 sequence (Q9NZQ7 19-238): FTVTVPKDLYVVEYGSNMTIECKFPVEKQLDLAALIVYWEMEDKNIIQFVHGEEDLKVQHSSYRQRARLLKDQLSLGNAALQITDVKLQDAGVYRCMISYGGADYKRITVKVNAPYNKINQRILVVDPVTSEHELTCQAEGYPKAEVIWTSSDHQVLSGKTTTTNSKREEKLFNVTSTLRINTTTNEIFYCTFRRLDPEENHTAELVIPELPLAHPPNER

Sequence of PD-L1 on cells (target cells of the assays) (Q9NZQ7 19-290 limits assumed): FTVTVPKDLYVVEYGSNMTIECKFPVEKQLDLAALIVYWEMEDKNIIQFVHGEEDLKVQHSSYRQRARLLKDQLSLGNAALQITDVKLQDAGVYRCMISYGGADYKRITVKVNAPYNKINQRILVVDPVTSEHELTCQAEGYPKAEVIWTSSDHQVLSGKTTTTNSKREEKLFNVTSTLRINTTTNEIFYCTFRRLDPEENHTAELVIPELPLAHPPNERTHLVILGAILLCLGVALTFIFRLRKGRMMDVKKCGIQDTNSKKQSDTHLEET

B1: C40 x P24 bispecific antibody in a BC44 format (bispecific antibody)
chain 1: not shown
chain 2: EVQLVESGGGLVQPGGSLRLSCAASGFTFSYYYIHWVRQAPGKGLEWVAWIDPYGHSTTYADSVKGRFTISADTSKNTAYLQMNSLRAEDTAVYYCARGGRGAMDYWGQGTLVTVSSASPREPQVYTLPPCRDELTKNQVSLTCLVKGFYPSDIAVEWESNGQPENNYKTTPPVLDSDGSFFLYSKLTVDKSRWQQGNVFSCSVMHEALHNHYTQKSLSLSPGK
chain 3: DIQMTQSPSSLSASVGDRVTITCRASQSVSSAVAWYQQKPGKAPKLLIYSASSLYSGVPSRFSGSRSGTDFTLTISSLQPEDFATYYCQQVSYSPYTFGQGTKVEIKRTVAAPSVFIFPPSDEQLKSGTASVVCLLNNFYPREAKVQWKVDNALQSGNSQESVTEQDSKDSTYSLSSTLTLSKADYEKHKVYACEVTHQGLSSPVTKSFNRGECDKTHTCPPCPAPELLGGPSVFLFPPKPKDTLMISRTPEVTCVVVDVSHEDPEVKFNWYVDGVEVHNAKTKPREEQYNSTYRVVSVLTVLHQDWLNGKEYKCKVSNKALPAPIEKTISKAKGQPREPQVCTLPPSREEMTKNQVSLSCAVKGFYPSDIAVEWESNGQPENNYKTTPPVLDSDGSFFLVSKLTVDKSRWQQGNVFSCSVMHEALHNHYTQKSLSLSPGK
chain 4: EVQLVESGGGLVQPGGSLRLSCAASGFTFDQYYIHWVRQAPGKGLEWVAEIYPAGSYTYYADSVKGRFTISADTSKNTAYLQMNSLRAEDTAVYYCARGPYSVRYALDYWGQGTLVTVSSASTKGPSVFPLAPSSKSTSGGTAALGCLVKDYFPEPVTVSWNSGALTSGVHTFPAVLQSSGLYSLSSVVTVPSSSLGTQTYICNVNHKPSNTKVDKKVEPPKSC
notes: B-Body of four polypeptide chains, BC44 format; CD47 arm from C40, PD-L1 arm from P24; also called C40 × P24
IC50, CD47/SIRPα Inhibition Assay in PD-L1 MDA-MB-231 Cells [1]: 0.112 nM
IC50, CD47/SIRPα Inhibition Assay, JeKo-PD-L1 Cells [2]: 1.26 nM
IC50, PD-1/PD-L1 Inhibition Assay in Jeko-PD-L1 Cells [3]: 0.275 nM
IC50, PD-1/PD-L1 Inhibition Assay in MDA-MB-231 PD-L1 Cells [3]: 1.3 nM
EC50 [4]: 0.703 nM
EC50 [5]: 3.1 nM

B2: C40 x P24 (silent Fc) bispecific antibody in a BC44 format (bispecific antibody)
chain 1: not shown
chain 2: EVQLVESGGGLVQPGGSLRLSCAASGFTFSYYYIHWVRQAPGKGLEWVAWIDPYGHSTTYADSVKGRFTISADTSKNTAYLQMNSLRAEDTAVYYCARGGRGAMDYWGQGTLVTVSSASPREPQVYTLPPCRDELTKNQVSLTCLVKGFYPSDIAVEWESNGQPENNYKTTPPVLDSDGSFFLYSKLTVDKSRWQQGNVFSCSVMHEALHNHYTQKSLSLSPGK
chain 3: DIQMTQSPSSLSASVGDRVTITCRASQSVSSAVAWYQQKPGKAPKLLIYSASSLYSGVPSRFSGSRSGTDFTLTISSLQPEDFATYYCQQVSYSPYTFGQGTKVEIKRTVAAPSVFIFPPSDEQLKSGTASVVCLLNNFYPREAKVQWKVDNALQSGNSQESVTEQDSKDSTYSLSSTLTLSKADYEKHKVYACEVTHQGLSSPVTKSFNRGECDKTHTCPPCPAPEAAGGPSVFLFPPKPKDTLMISRTPEVTCVVVDVSHEDPEVKFNWYVDGVEVHNAKTKPREEQYNSTYRVVSVLTVLHQDWLNGKEYKCKVSNKALKAPIEKTISKAKGQPREPQVCTLPPSREEMTKNQVSLSCAVKGFYPSDIAVEWESNGQPENNYKTTPPVLDSDGSFFLVSKLTVDKSRWQQGNVFSCSVMHEALHNHYTQKSLSLSPGK
chain 4: EVQLVESGGGLVQPGGSLRLSCAASGFTFDQYYIHWVRQAPGKGLEWVAEIYPAGSYTYYADSVKGRFTISADTSKNTAYLQMNSLRAEDTAVYYCARGPYSVRYALDYWGQGTLVTVSSASTKGPSVFPLAPSSKSTSGGTAALGCLVKDYFPEPVTVSWNSGALTSGVHTFPAVLQSSGLYSLSSVVTVPSSSLGTQTYICNVNHKPSNTKVDKKVEPPKSC
IC50, CD47/SIRPα Inhibition Assay, JeKo-PD-L1 Cells [2]: 0.26 nM
IC50, PD-1/PD-L1 Inhibition Assay in Jeko-PD-L1 Cells [3]: 0.274 nM
IC50, PD-1/PD-L1 Inhibition Assay in MDA-MB-231 PD-L1 Cells [3]: 14.7 nM

B3: C59 x P31.2 bispecific antibody in a BC44 format (bispecific antibody)
chain 1: not shown
chain 2: EVQLVESGGGLVQPGGSLRLSCAASGFTFTSYYIHWVRQAPGKGLEWVAYIDSKHGTTQYADSVKGRFTISADTSKNTAYLQMNSLRAEDTAVYYCARGGRSAMDYWGQGTLVTVSSASPREPQVYTLPPCRDELTKNQVSLTCLVKGFYPSDIAVEWESNGQPENNYKTTPPVLDSDGSFFLYSKLTVDKSRWQQGNVFSCSVMHEALHNHYTQKSLSLSPGK
chain 3: DIQMTQSPSSLSASVGDRVTITCRASQSVSSAVAWYQQKPGKAPKLLIYSASSLYSGVPSRFSGSRSGTDFTLTISSLQPEDFATYYCQQFGAEPITFGQGTKVEIKRTVAAPSVFIFPPSDEQLKSGTASVVCLLNNFYPREAKVQWKVDNALQSGNSQESVTEQDSKDSTYSLSSTLTLSKADYEKHKVYACEVTHQGLSSPVTKSFNRGECDKTHTCPPCPAPELLGGPSVFLFPPKPKDTLMISRTPEVTCVVVDVSHEDPEVKFNWYVDGVEVHNAKTKPREEQYNSTYRVVSVLTVLHQDWLNGKEYKCKVSNKALPAPIEKTISKAKGQPREPQVCTLPPSREEMTKNQVSLSCAVKGFYPSDIAVEWESNGQPENNYKTTPPVLDSDGSFFLVSKLTVDKSRWQQGNVFSCSVMHEALHNHYTQKSLSLSPGK
chain 4: EVQLVESGGGLVQPGGSLRLSCAASGFTFSSYYIHWVRQAPGKGLEWVATISSGGGFTYYADSVKGRFTISADTSKNTAYLQMNSLRAEDTAVYYCARGYTLTPVLDYWGQGTLVTVSSASTKGPSVFPLAPSSKSTSGGTAALGCLVKDYFPEPVTVSWNSGALTSGVHTFPAVLQSSGLYSLSSVVTVPSSSLGTQTYICNVNHKPSNTKVDKKVEPPKSC
notes: B-Body of four polypeptide chains, BC44 format; CD47 arm from C59, PD-L1 arm from P31.2; also called C59 × P31.2
IC50, CD47/SIRPα Inhibition Assay in PD-L1 MDA-MB-231 Cells [1]: 0.266 nM
IC50, PD-1/PD-L1 Inhibition Assay in Jeko-PD-L1 Cells [3]: 0.0268 nM
IC50, PD-1/PD-L1 Inhibition Assay in MDA-MB-231 PD-L1 Cells [3]: 3.7 nM
EC50 [4]: 0.256 nM
EC50 [5]: 2.5 nM

B4: C56 x P22 bispecific antibody in a BC44 format (bispecific antibody)
chain 1: not shown
chain 2: EVQLVESGGGLVQPGGSLRLSCAASGFTFTYYYIHWVRQAPGKGLEWVAFIDPYSGSTEYADSVKGRFTISADTSKNTAYLQMNSLRAEDTAVYYCARGGLYALDYWGQGTLVTVSSASPREPQVYTLPPCRDELTKNQVSLTCLVKGFYPSDIAVEWESNGQPENNYKTTPPVLDSDGSFFLYSKLTVDKSRWQQGNVFSCSVMHEALHNHYTQKSLSLSPGK
chain 3: DIQMTQSPSSLSASVGDRVTITCRASQSVSSAVAWYQQKPGKAPKLLIYSASSLYSGVPSRFSGSRSGTDFTLTISSLQPEDFATYYCQQYYTSPYTFGQGTKVEIKRTVAAPSVFIFPPSDEQLKSGTASVVCLLNNFYPREAKVQWKVDNALQSGNSQESVTEQDSKDSTYSLSSTLTLSKADYEKHKVYACEVTHQGLSSPVTKSFNRGECDKTHTCPPCPAPELLGGPSVFLFPPKPKDTLMISRTPEVTCVVVDVSHEDPEVKFNWYVDGVEVHNAKTKPREEQYNSTYRVVSVLTVLHQDWLNGKEYKCKVSNKALPAPIEKTISKAKGQPREPQVCTLPPSREEMTKNQVSLSCAVKGFYPSDIAVEWESNGQPENNYKTTPPVLDSDGSFFLVSKLTVDKSRWQQGNVFSCSVMHEALHNHYTQKSLSLSPGK
chain 4: EVQLVESGGGLVQPGGSLRLSCAASGFTFSSYYIHWVRQAPGKGLEWVAWITSHGYSTKYADSVKGRFTISADTSKNTAYLQMNSLRAEDTAVYYCARDSVIYGLDYWGQGTLVTVSSASTKGPSVFPLAPSSKSTSGGTAALGCLVKDYFPEPVTVSWNSGALTSGVHTFPAVLQSSGLYSLSSVVTVPSSSLGTQTYICNVNHKPSNTKVDKKVEPPKSC
notes: B-Body of four polypeptide chains, BC44 format; CD47 arm from C56, PD-L1 arm from P22; also called C56 × P22
IC50, CD47/SIRPα Inhibition Assay in PD-L1 MDA-MB-231 Cells [1]: 0.218 nM
IC50, CD47/SIRPα Inhibition Assay, JeKo-PD-L1 Cells [2]: 1.2 nM
IC50, PD-1/PD-L1 Inhibition Assay in Jeko-PD-L1 Cells [3]: 1.99 nM
IC50, PD-1/PD-L1 Inhibition Assay in MDA-MB-231 PD-L1 Cells [3]: 3 nM
EC50 [4]: 0.218 nM
EC50 [5]: 1.2 nM

B5: antibody designated P24 (antibody, V domains shown)
VH: EVQLVESGGGLVQPGGSLRLSCAASGFTFDQYYIHWVRQAPGKGLEWVAEIYPAGSYTYYADSVKGRFTISADTSKNTAYLQMNSLRAEDTAVYYCARGPYSVRYALDYWGQGTLVT
VL: DIQMTQSPSSLSASVGDRVTITCRASQSVSSAVAWYQQKPGKAPKLLIYSASSLYSGVPSRFSGSRSGTDFTLTISSLQPEDFATYYCQQVSYSPYTFGQGTKVEIK
notes: Anti-PD-L1
binding result [6]: binds

— US20240010751A1 (EXELIXIS, published 2024)
